Data published in patent US20200283537A1 (published 2020).

B1: Lexatumumab (anti-TRAIL-R2/DR5 antibody), recombinant human IgG1 (antibody, V domains shown)
VH: EVQLVQSGGGVERPGGSLRLSCAASGFTFDDYGMSWVRQAPGKGLEWVSGINWNGGSTGYADSVKGRVTISRDNAKNSLYLQMNSLRAEDTAVYYCAKILGAGRGWYFDLWGKGTTVTVSS
VL: SSELTQDPAVSVALGQTVRITCQGDSLRSYYASWYQQKPGQAPVLVIYGKNNRPSGIPDRFSGSSSGNTASLTITGAQAEDEADYYCNSRDSSGNHVVFGGGTKLTVLG
B2: BaCa-3 (dual-variable-domain bispecific, lexatumumab variable domains outer, farletuzumab inner) (bispecific antibody)
heavy: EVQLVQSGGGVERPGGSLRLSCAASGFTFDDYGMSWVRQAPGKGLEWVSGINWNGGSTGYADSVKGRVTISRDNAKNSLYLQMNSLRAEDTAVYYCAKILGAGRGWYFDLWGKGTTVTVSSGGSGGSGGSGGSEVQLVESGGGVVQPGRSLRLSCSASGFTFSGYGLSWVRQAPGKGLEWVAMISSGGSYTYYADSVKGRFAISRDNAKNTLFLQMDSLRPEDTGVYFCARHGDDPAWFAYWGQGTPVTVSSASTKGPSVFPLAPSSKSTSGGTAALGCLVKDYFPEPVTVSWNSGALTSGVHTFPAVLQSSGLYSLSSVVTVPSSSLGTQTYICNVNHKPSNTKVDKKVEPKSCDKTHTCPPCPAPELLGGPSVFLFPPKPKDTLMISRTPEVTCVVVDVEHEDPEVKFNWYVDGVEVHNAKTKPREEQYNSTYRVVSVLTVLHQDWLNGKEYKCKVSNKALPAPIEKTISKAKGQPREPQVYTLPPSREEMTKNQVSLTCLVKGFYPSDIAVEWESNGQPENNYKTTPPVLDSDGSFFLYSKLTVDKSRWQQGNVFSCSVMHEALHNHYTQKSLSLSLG
light: SSELTQDPAVSVALGQTVRITCQGDSLRSYYASWYQQKPGQAPVLVIYGKNNRPSGIPDRFSGSSSGNTASLTITGAQAEDEADYYCNSRDSSGNHVVFGGGTKLTVLGGSGGSGGSGGSDIQLTQSPSSLSASVGDRVTITCSVSSSISSNNLHWYQQKPGKAPKPWIYGTSNLASGVPSRFSGSGSGTDYTFTISSLQPEDIATYYCQQWSSYPYMYTFGQGTKVEIKRTVAAPSVFIFPPSDEQLKSGTASVVCLLNNFYPREAKVQWKVDNALQSGNSQESVTEQDSKDSTYSLSSTLTLSKADYEKHKVYACEVTHQGLSSPVTKSFNRGEC
B3: BaCa-1 (Bispecific-Anchored Cytotoxicity-Activator-1; farletuzumab IgG1 with a lexatumumab scFv at the C-terminus of the heavy chain) (bispecific antibody)
heavy: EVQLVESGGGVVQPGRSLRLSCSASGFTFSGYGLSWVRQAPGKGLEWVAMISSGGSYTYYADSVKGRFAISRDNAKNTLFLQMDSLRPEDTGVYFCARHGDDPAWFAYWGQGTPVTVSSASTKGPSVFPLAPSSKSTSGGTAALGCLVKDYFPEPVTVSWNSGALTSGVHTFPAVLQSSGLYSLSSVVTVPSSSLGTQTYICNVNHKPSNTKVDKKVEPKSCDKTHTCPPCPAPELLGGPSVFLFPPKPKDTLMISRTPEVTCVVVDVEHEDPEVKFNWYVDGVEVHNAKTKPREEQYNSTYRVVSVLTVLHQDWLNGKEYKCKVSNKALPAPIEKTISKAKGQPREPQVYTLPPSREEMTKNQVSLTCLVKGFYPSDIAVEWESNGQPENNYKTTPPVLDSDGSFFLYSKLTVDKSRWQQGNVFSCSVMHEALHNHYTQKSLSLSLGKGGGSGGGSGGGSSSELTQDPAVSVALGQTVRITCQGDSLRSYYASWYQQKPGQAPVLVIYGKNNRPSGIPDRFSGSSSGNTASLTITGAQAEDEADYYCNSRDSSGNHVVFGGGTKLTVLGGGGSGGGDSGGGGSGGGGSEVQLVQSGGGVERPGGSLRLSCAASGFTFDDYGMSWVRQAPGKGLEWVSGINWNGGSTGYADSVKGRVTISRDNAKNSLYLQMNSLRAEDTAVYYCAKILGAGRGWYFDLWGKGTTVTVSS
light: DIQLTQSPSSLSASVGDRVTITCSVSSSISSNNLHWYQQKPGKAPKPWIYGTSNLASGVPSRFSGSGSGTDYTFTISSLQPEDIATYYCQQWSSYPYMYTFGQGTKVEIKRTVAAPSVFIFPPSDEQLKSGTASVVCLLNNFYPREAKVQWKVDNALQSGNSQESVTEQDSKDSTYSLSSTLTLSKADYEKHKVYACEVTHQGLSSPVTKSFNRGEC
B4: BaCa antibody with LALA-Fc (L234A-L235A) mutations in the CH2 domain (bispecific antibody)
heavy: EVQLVESGGGVVQPGRSLRLSCSASGFTFSGYGLSWVRQAPGKGLEWVAMISSGGSYTYYADSVKGRFAISRDNAKNTLFLQMDSLRPEDTGVYFCARHGDDPAWFAYWGQGTPVTVSSASTKGPSVFPLAPSSKSTSGGTAALGCLVKDYFPEPVTVSWNSGALTSGVHTFPAVLQSSGLYSLSSVVTVPSSSLGTQTYICNVNHKPSNTKVDKKVEPKSCDKTHTCPPCPAPEAAGGPSVFLFPPKPKDTLMISRTPEVTCVVVDVEHEDPEVKFNWYVDGVEVHNAKTKPREEQYNSTYRVVSVLTVLHQDWLNGKEYKCKVSNKALPAPIEKTISKAKGQPREPQVYTLPPSREEMTKNQVSLTCLVKGFYPSDIAVEWESNGQPENNYKTTPPVLDSDGSFFLYSKLTVDKSRWQQGNVFSCSVMHEALHNHYTQKSLSLSLGKGGGSGGGSGGGSSSELTQDPAVSVALGQTVRITCQGDSLRSYYASWYQQKPGQAPVLVIYGKNNRPSGIPDRFSGSSSGNTASLTITGAQAEDEADYYCNSRDSSGNHVVFGGGTKLTVLGGGGSGGGDSGGGGSGGGGSEVQLVQSGGGVERPGGSLRLSCAASGFTFDDYGMSWVRQAPGKGLEWVSGINWNGGSTGYADSVKGRVTISRDNAKNSLYLQMNSLRAEDTAVYYCAKILGAGRGWYFDLWGKGTTVTVSS
light: B3 light
B5: Farletuzumab (humanized anti-FOLR1 monoclonal antibody), recombinant human IgG1 (antibody, V domains shown)
VH: EVQLVESGGGVVQPGRSLRLSCSASGFTFSGYGLSWVRQAPGKGLEWVAMISSGGSYTYYADSVKGRFAISRDNAKNTLFLQMDSLRPEDTGVYFCARHGDDPAWFAYWGQGTPVTVSS
VL: DIQLTQSPSSLSASVGDRVTITCSVSSSISSNNLHWYQQKPGKAPKPWIYGTSNLASGVPSRFSGSGSGTDYTFTISSLQPEDIATYYCQQWSSYPYMYTFGQGTKVEIKR
B6: BaCa-2 (knob/hole single-chain-linked bispecific, monovalent anti-FOLR1 and anti-DR5) (bispecific antibody)
chain 1: not shown
chain 2: SSELTQDPAVSVALGQTVRITCQGDSLRSYYASWYQQKPGQAPVLVIYGKNNRPSGIPDRFSGSSSGNTASLTITGAQAEDEADYYCNSRDSSGNHVVFGGGTKLTVLRTVAAPSVFIFPPSDEQLKSGTASVVCLLNNFYPREAKVQWKVDNALQSGNSQESVTEQDSKDSTYSLSSTLTLSKADYEKHKVYACEVTHQGLSSPVTKSFNRGECGGGGSGGGGSGGGGSGGGGSGGGGSGGGGSGGGGSGGGGSGGGGSGGGGSEVQLVQSGGGVERPGGSLRLSCAASGFTFDDYGMSWVRQAPGKGLEWVSGINWNGGSTGYADSVKGRVTISRDNAKNSLYLQMNSLRAEDTAVYYCAKILGAGRGWYFDLWGKGTTVTVSSASTKGPSVFPLAPSSKSTSGGTAALGCLVKDYFPEPVTVSWNSGALTSGVHTFPAVLQSSGLYSLSSVVTVPSSSLGTQTYICNVNHKPSNTKVDKRVEPKSCDKTHTCPPCPAPELLGGPSVFLFPPKPKDTLMISRTPEVTCVVVDVSHEDPEVKFNWYVDGVEVHNAKTKPREEQYNSTYRVVSVLTVLHQDWLNGKEYKCKVSNKALPAPIEKTISKAKGQPREPQVYTLPPSREEMTKNQVSLTCLVKGFYPSDIAVEWESNGQPENNYKTTPPVLDSDGSFFLTSKLTVDKSRWQQGNVFSCSVMHEALHNRFTQKSLSLSPG

Columns and labels:
[1] = target: T1, Recombinant DR5 (rDR5), extracellular domain of DR5/TRAIL-R2 fused to IgG4-Fc; assay: BLI
[2] = target: T1, Recombinant DR5 (rDR5), extracellular …; assay: BLI; remark: listed apart in the source
[3] = target: T1, Recombinant DR5 (rDR5), extracellular …; assay: ELISA
[4] = target: T1, Recombinant DR5 (rDR5), extracellular …; assay: ELISA; remark: listed apart in the source
[5] = target: T1, Recombinant DR5 (rDR5), extracellular …; assay: ELISA; remark: listed apart in the source
[6] = target: T2, Recombinant FOLR1 (rFOLR1), extracellular domain of folate receptor alpha-1 fused to IgG4-Fc; assay: ELISA
[7] = target: T1, Recombinant DR5 (rDR5), extracellular …; assay: ELISA; remark: listed apart in the source
[8] = target: T2, Recombinant FOLR1 (rFOLR1), …; assay: ELISA; remark: listed apart in the source
[9] = target: T1, Recombinant DR5 (rDR5), extracellular …; assay: BLI; remark: listed apart in the source
[10] = target: T2, Recombinant FOLR1 (rFOLR1), …; assay: BLI
[11] = target: T1, Recombinant DR5 (rDR5), extracellular …; assay: BLI; remark: listed apart in the source
[12] = target: T2, Recombinant FOLR1 (rFOLR1), …; assay: BLI; remark: listed apart in the source

| Binder | Kd [5] | Kd [6] | Kd [7] | Kd [8] | Kd [10] | Kd [12] | further results |
| --- | --- | --- | --- | --- | --- | --- | --- |
| B1 | – | – | – | – | – | – | Kd [1]: 3.3 nM; Kd [2]: 3.3 nM; Kd [3]: 1.26 nM; Kd [4]: 0.518 nM |
| B2 | 0.538 nM | 0.392 nM | – | – | – | – | – |
| B3 | 0.73 nM | 0.61 nM | 1.41 nM | 1.21 nM | 12 nM | 12 nM | Kd [9]: 3.1 nM; Kd [11]: 3.1 nM |
| B4 | – | – | 1.65 nM | 0.904 nM | – | – | – |
| B5 | – | 0.42 nM | – | 0.985 nM | 15 nM | 15 nM | – |
| B6 | 1.08 nM | 0.0887 nM | – | – | – | – | – |
